± gives the uncertainty stated by the source.
B1: Far upstream element-binding protein 1, residues 98 to 169; numbered along this chain, Q96AE4 (parent)
chain: RSVMTEEYKVPDGMVGFIIGRGGEQISRIQQESGCKIQIAPDSGGLPERSCMLTGTPESVQSAKRLLDQIVE

Variants of: B1
Test: abundance fitness (aPCA) (normalised: wild type 0, dead -1); higher = more abundant; growth selection in yeast, the domain comes from the species named
Settings: Homo sapiens

Abundance fitness, by site and new letter:
V60: H -0.525 ± 0.059; P -0.871 ± 0.075; T -0.13 ± 0.036; A -0.307 ± 0.03; R -0.006 ± 0.025; D -0.768 ± 0.06; E -0.855 ± 0.044; Y -0.781 ± 0.07; S -0.57 ± 0.037; K -0.223 ± 0.036; L -0.009 ± 0.03; N -0.109 ± 0.047; I 0.025 ± 0.045; Q -0.174 ± 0.042; W -0.999 ± 0.056; F -0.558 ± 0.069
S59: Y -0.376 ± 0.05; F -0.428 ± 0.047; E 0.012 ± 0.03; T -0.058 ± 0.033; C -0.071 ± 0.037; V -0.116 ± 0.028; M -0.089 ± 0.034; W -0.754 ± 0.042; P -0.555 ± 0.037; L -0.401 ± 0.029; Q -0.017 ± 0.034; H -0.063 ± 0.038; D -0.053 ± 0.036; K -0.046 ± 0.033; G -0.046 ± 0.023; I -0.252 ± 0.051; R -0.064 ± 0.024
S62: H -0.01 ± 0.038; R -0.017 ± 0.023; V 0.012 ± 0.027; I -0.082 ± 0.053; Y -0.066 ± 0.041; Q -0.019 ± 0.031; G -0.01 ± 0.024; A -0.03 ± 0.026; K 0.005 ± 0.033; E -0.004 ± 0.029; F -0.071 ± 0.04; W -0.059 ± 0.029; N -0.005 ± 0.041; T -0.005 ± 0.029; P -0.727 ± 0.041; C 0.025 ± 0.038
K64: F -0.254 ± 0.043; H -0.136 ± 0.041; L -0.231 ± 0.026; V -0.09 ± 0.026; C -0.137 ± 0.038; T -0.065 ± 0.03; D -0.634 ± 0.047; R -0.015 ± 0.023; Q -0.104 ± 0.033; G -0.179 ± 0.025; E -0.15 ± 0.03; P -0.781 ± 0.041; I -0.097 ± 0.04; N -0.274 ± 0.043; W -0.252 ± 0.03; S -0.126 ± 0.026; A -0.078 ± 0.027
T56: K -0.027 ± 0.036; I -0.079 ± 0.042; Y -0.066 ± 0.056; E -0.036 ± 0.032; G -0.091 ± 0.024; W -0.154 ± 0.034; Q -0.042 ± 0.041; L -0.062 ± 0.028; A -0.046 ± 0.029; V -0.04 ± 0.026; D -0.067 ± 0.037; F -0.087 ± 0.045; C -0.026 ± 0.037; N -0.03 ± 0.044; S -0.006 ± 0.027; R -0.058 ± 0.025
A63: G -0.069 ± 0.023; F -0.941 ± 0.093; K -1.04 ± 0.069; D -0.633 ± 0.05; S -0.261 ± 0.029; N -0.91 ± 0.078; H -1.09 ± 0.089; W -1.31 ± 0.079; C 0.024 ± 0.036; Y -1.05 ± 0.11; V -0.246 ± 0.027; E -0.815 ± 0.047; L -0.41 ± 0.028; I -0.328 ± 0.043; P -0.805 ± 0.046; T -0.303 ± 0.032
M52: I -0.018 ± 0.05; K -0.045 ± 0.034; A -0.056 ± 0.03; N -0.072 ± 0.052; E -0.053 ± 0.031; Q -0.032 ± 0.039; S 0.001 ± 0.029; R -0.017 ± 0.024; W -0.011 ± 0.029; H -0.025 ± 0.058; V 0 ± 0.027; G -0.137 ± 0.024; D -0.139 ± 0.039; L 0 ± 0.028; Y -0.012 ± 0.053; C -0.004 ± 0.043; T -0.033 ± 0.037; P -0.625 ± 0.046
P57: G -0.025 ± 0.026; A -0.017 ± 0.028; K -0.044 ± 0.04; H -0.12 ± 0.058; V -0.086 ± 0.029; D -0.097 ± 0.044; Q 0.033 ± 0.034; Y -0.049 ± 0.054; W -0.104 ± 0.034; C -0.111 ± 0.049; F 0.057 ± 0.051; I -0.088 ± 0.05; R -0.021 ± 0.024; N 0.001 ± 0.063; L -0.048 ± 0.029; E -0.008 ± 0.031; S -0.027 ± 0.03
R49: A -0.088 ± 0.031; D -0.172 ± 0.045; N -0.085 ± 0.045; Y -0.072 ± 0.046; W -0.318 ± 0.032; E -0.188 ± 0.033; G -0.088 ± 0.026; F -0.248 ± 0.049; I -0.133 ± 0.045; T -0.068 ± 0.034; K -0.079 ± 0.037; C -0.183 ± 0.041; Q -0.083 ± 0.038; V -0.116 ± 0.03; L -0.18 ± 0.03; S -0.086 ± 0.029; H -0.106 ± 0.054; P -0.144 ± 0.04
G45: T -0.074 ± 0.036; Y -0.095 ± 0.048; W -0.166 ± 0.036; V -0.111 ± 0.029
P47: F -0.084 ± 0.052; T -0.007 ± 0.033; M -0.088 ± 0.035; S -0.014 ± 0.031; C -0.061 ± 0.041; L -0.02 ± 0.03; G -0.019 ± 0.027; I -0.049 ± 0.051; K -0.004 ± 0.04; H -0.052 ± 0.045; Q 0.019 ± 0.038; N -0.012 ± 0.052

Reference: the Human Domainome abundance scans (Beltran et al. 2025)
